In patent publication US20110020786A1, “PEPTIDE DENDRIMERS: AFFINITY REAGENTS FOR BINDING NOROVIRUSES” (BAYLOR COLLEGE OF MEDICINE, priority 2007, published 2011):
Ends that are not written are not given here.

Biological target: NoVLPs (Norovirus-like particles) (so in the source)
Test: SPR (BIAcore), NoVLPs immobilized, dendrimer injected at 8-240 µM, steady-state fit of the equilibrium average response

## RHFQTHTVPLSL (also: octovalent MAP dendrimer, eight copies on branching lysine core) […8 (the octovalent dendrimer of SEQ ID NO: 1)]
  Kd: 117 µM
